Results on 3 molecules are retold here after US20220204643A1 (published 2022).

Experiment [1] addresses T1, ankyrin repeat domain 53, transcript variant 2 (human).
T1 construct: on protein array; also called ANKRD53
T1 chain: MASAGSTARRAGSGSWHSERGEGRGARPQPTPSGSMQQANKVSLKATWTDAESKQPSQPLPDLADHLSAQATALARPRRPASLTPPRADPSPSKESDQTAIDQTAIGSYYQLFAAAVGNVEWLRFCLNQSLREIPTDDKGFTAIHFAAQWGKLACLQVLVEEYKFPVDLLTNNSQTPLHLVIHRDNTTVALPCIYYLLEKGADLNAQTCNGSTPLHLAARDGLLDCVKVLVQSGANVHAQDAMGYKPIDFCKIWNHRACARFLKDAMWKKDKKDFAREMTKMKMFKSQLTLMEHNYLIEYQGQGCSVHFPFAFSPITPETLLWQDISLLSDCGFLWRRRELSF
As to the kind of experiment: protein array, with experimental replicate.

The target in experiment [2] is T2, checkpoint kinase 2, transcript variant 3 (human).
T2 construct: on protein array; also called CHEK2
T2 chain: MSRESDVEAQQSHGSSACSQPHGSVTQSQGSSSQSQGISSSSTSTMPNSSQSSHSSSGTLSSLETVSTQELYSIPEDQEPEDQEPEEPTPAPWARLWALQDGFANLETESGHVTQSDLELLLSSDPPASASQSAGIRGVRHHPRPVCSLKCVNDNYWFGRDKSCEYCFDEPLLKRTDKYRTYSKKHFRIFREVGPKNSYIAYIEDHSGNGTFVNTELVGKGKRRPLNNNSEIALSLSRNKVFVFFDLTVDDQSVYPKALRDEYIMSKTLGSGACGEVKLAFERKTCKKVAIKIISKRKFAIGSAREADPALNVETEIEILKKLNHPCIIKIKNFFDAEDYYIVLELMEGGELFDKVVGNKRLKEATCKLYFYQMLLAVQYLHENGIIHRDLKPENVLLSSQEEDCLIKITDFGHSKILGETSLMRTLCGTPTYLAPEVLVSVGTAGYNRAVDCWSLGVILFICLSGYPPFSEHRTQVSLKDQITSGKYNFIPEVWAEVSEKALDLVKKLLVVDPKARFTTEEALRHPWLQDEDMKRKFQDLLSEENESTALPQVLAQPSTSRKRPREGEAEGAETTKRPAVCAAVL
Description: protein array.

Experiment [3] addresses T3, S100 calcium binding protein B (human, UniProt P04271 2-92).
T3 construct: on protein array; also called S100B
T3 sequence: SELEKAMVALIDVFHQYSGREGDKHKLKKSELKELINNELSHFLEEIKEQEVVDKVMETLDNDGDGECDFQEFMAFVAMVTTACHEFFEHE
Description: protein array, with experimental replicate.

B1: TKIC10019 (antibody, V domains shown)
VH: QLQLQESGPGLVKPSETLSLTCTVSDVSIISSFYYWGWIRQPPGKGLEWIGSVYYSGSTSYNPSLKSRVTISADTSKAHFSLNLRSVTAADTAVYYCVSRGPLGGAAAGPDYWGQGALVIVSS
VL: VSSELTQDPAVSVALGQTVRITCQGDSLRSYYATWYQQKPGQAPLLVIFDKDKRPSGIPDRFSGSSSGNTASLTITGAQPEDEAVYYCNSRDSSAHDHLLFGGGTTLTVLG
notes: VH/VL tied via antigen in summary, not by name in this stretch
In the case of B1, in experiment [1], the binding result is given as “binds”.

B2: TKIC10013 (antibody, V domains shown)
VH: EVQLVESGGGLVQPGGSLRLSCAASGFTFNNYWMHWVRQAPGKGLVWVSRISSDGSTTASADSVKGRFTISRDNAKNTLFLQMNSLRAEDTAVYYCAREGAPDDYGDSGTAFDIWGQGTTVTVSS
VL: DIQLTQSPSFLSASVGDRVTITCRASQDISSFLAWYQQKPGKAPDLLIYAASTLQSGVPSRFSGSGSGTEFTLTISSLQPEDFAAYYCQHLTSFPYTFGQGTKLEIKR
notes: as for B1
For B2, the binding result in experiment [2] is listed as “binds”.

B3: TKIC10012 (antibody, V domains shown)
VH: VVQLVESGGGLVQPGGSLRLSCAASGFSFSTYWMSWVRQAPGKGLEWVANIKQDGSEKHYVDSVKGRFTISRDNAKNSLYLQMNSLRAEDTAMYYCARRAYSFDYWGQGTLVTVSS
VL: DIQMTQSPSTLSASVGDKVTITCRASQSVGSWLAWYQQKPGKAPKLLISVASSLESGVPSRFSGSGSGTEFTLTVSSLQPDDFATYYCQQYNSYSWTFGQGTKVELKR
notes: as for B1
Turning to B3, the binding result in experiment [3] is given as “binds”.
